Measurements: the RNAGym collection of RNA variant scans (doi:10.1073/pnas.2313332121)

B1: TPR t1 (parent)
chain: GACCAAUCUGCCCUCAGAGCUCGAGAACAUCUUCGGAUGCAGAGGAGGCAGGCUUCGGUGGCGCGAUAGCGCCAACGUCCUCAACCUCCAAUGCAUCCCACCACAUGAUGAUGCCUGAAGAGCCUUGGUUUUUUG

Variants of: B1
Assay: polymerase ribozyme fitness, log enrichment relative to wild type (log ratio); higher = more active; in vitro selection for triplet polymerase activity
Procedure, shortened: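 Both subunits of a heterodimeric triplet polymerase ribozyme were given their own mutant library, built by PCR and transcribed. Each library was annealed with a biotinylated primer, the partner subunit and triplets, incubated frozen at −7 °C, and its extended constructs gel-excised, captured on streptavidin beads and amplified by RT-PCR, all in one round done in triplicate. Fitness is the logarithm of genotype enrichment relative to wild-type enrichment, with replicates averaged by inverse-variance weighting. That logarithm is base 2, and Illumina-sequenced genotypes needed ≥10 input reads and ≥1 read per output.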

Variant	polymerase ribozyme fitness (log ratio)
C12G G69C C82U C98U A119G	-0.598
C12G U21C A29U G61A C123U U131A	-2.39
C12G C22A A41G G71U C124A	-4.76
C12U A24G G36A G63A	-2.54
C12G G19C G57A A119G U131A	-3.15
C12G G128A	-1.65
C12G C72G C86A U92A G110U	-4.84
C12U A18G A41U G47C C72U U109G C124G	-3.69
C12G G23A G71C C123G U129A	-7.78
C12G C53A G57U G60U C94U G107U	-6.32
C12G C62G C82A	-1.16
C12G G117U	-1.22
C12U A18C C70U A75U U125G	-5.05
C12G C56U U78A A90C C114U	-2.46
C12G C64U A75U U116G G122A C124G	0.593
C12G C40G C62U	-0.941
C12U A18U G19C G35A G48A C72A U112A	-6.64
C12G C49G	-0.51
C12G G35A A37U G63C	-5.96
C12U A26G C64A C73U G110C	-5.13
C12U A26G C56U C72U G117A U125G	-2.09
C12G C56U A74G G77C	-1.66
C12G U32G	-6.87
C12G U32A	-3.25

Variant	polymerase ribozyme fitness (log ratio)
C12U A27C A95U U125A	-3.79
C12U A26U C94U A118G	-2.71
C12G C72G	0.202
C12U A37C	-0.693
C12G U14C C85U C86U	-1.22
C12G U78C U125A	-0.607
C12U A27C C49A G61A U106A C115U	-4.69
C12G C62G	-1.6
C12G C64U C73U U131G	-0.0751
C12G C62G A75G U87C	-3.99
C12G C101G C102G G110C	-5.71
C12G G48A	-0.668
C12G G45U C101U A118U	-0.398
C12G U30C C70A	-4.46
C12G G44A G63A U112G G122U G135U	-2.91
C12G G122A	-0.383
C12G U116A	-3.29
C12G G51U	-2.93
C12G U21G A111U	-3.89
C12G G17C U87G C97A C123G	-6.84
C12U A18U C114A G128A U130A	-3
C12G C20U	-0.703
C12G C28U C124U	-0.261
C12G G45A A84C U106G	-1.76

Variant	polymerase ribozyme fitness (log ratio)
C12U A26U C28U C72U C123G	-5.39
C12G G35U C70U A74C C123G	-5.14
C12G C101G G110U	-5.05
C12U A16G C20U A84U U112G G113U	-0.951
C12G C20A G69A C79U C123U	-5.46
C12G C73A	0.691
C12G C73U	-0.295
C12U A18G G19C A37U A118U A121G	-1.65
C12G G45U	-0.996
C12G G39A G44A C102U	-4.47
C12G G110A	-0.401
C12G G110C	-3.59
C12G G110U	-1.12
C12G C94U	-0.437
C12G G63U A66U G120U G127U	-0.34
C12G U55C A90C	-1.45
C12U A27U C40A U78G U109A C123U U130C	-3.99
C12G U30C	-2.82
C12G C49A G77C	-0.254
C12G U112A	1.99
C12G G69U	0.711
C12G G47C	-1.34
C12U A26U C34A G63A A90C C104U G113C	-6.57
C12U A24G G36A	-1.4

Variant	polymerase ribozyme fitness (log ratio)
C12G G120U G127U	1.47
C12U A27G G48C	-1.97
C12G C102A	-1.85
C12G C102U	-1.38
C12G C73U C97A	-4.85
C12G U78C A111U	-3.23
C12U A29U C53G A74U	-2.34
C12G C49G C72A C89U C102A	-1.91
C12G C53U C64U U106C	-0.438
C12G C89U C97A G113C	-6.48
C12U A29U	-2.12
C12U A29G	-1.25
C12G G36C C114A G120A	-2.67
C12G U21A C31U G60C U87C A95G G120U U133A	-4.31
C12G C64A G122A	-6.12
C12G C64G C123G	-6.23
C12G G47A G113A C124U U129G U133A	-4.6
C12G G71A	0.0302
C12U A29G G45U C56U C89A A91U G110A G127U	-5.23
C12U A29G U125A	-1.53
C12G C56A C82A	-0.693
C12G G19U C72A	-5.03
C12G U109A	-4.88
C12G C20U A66U G69A	-5.04

Variant	polymerase ribozyme fitness (log ratio)
C12G U87C	0.621
C12G U55A C56G U81C	-1.29
C12G G63A C115G G117U	-4.35
C12G G52U C53G G60U	-0.409
C12G U78C	-0.718
C12G G60U G61C C88A U112A A119G	-3.63
C12G G63C	-1.09
C12G G63A	-0.827
C12G C40U G47C C79U C82G C123A U130C	-2.93
C12U A26U	-2.07
C12G C64U U133A	-0.644
C12U A26U G39C G110A	-5.25
C12G U14A C62A C86A C102A G120C U129A	-7.34
C12G G52A G61C C88U G120U	-3.61
C12G C28U G71U C124U	-0.951
C12G C22U G63A U87A	-4.98
C12G C76A U116A	-3.37
C12U A37C A46U	-1.38
C12G C34A C62U	-2.32
C12G U21C C101U A105U	-4.94
C12G G57C	-0.0296
C12G U132A	-0.729
C12G C22A C49A U55A C56U C62G G93U	-7.34
C12G G44U U59G	-1.39

Variant	polymerase ribozyme fitness (log ratio)
C12G C62G C99G C124A	-7.37
C12G C115U	-1.38
C12G C115A	-0.408
C12G C28G	-1.82
C12G G47U C94G G128A	-4.93
C12G C34A A41C G71C C79A	-6.92
C12G C40U U55A C82G	-0.877
C12U A16U C22G C99U	-3.39
C12G C62U A105C	-2.46
C12G C53U G60C C89U C102U C104U	-2.28
C12U A29G A50U A91G	-3.08
C12U A27G C70U C88A C123G U126A	-2.52
C12U	0.39
C12G C70A A118G	-0.792
C12G G107U	-5.64
C12G G47U C64U	-1.58
C12G U38C G69U C123A	1.35
C12G C76A A95U C115U	-4.26
C12G G39A C82G C114U	-3.7
C12G C22A	-4.18
C12G G36A C53A A74G C89U	-1.5
C12U A27G C28G G69U	-2.22
C12G U38G G44U U78A	-1.53
C12U A26U C34G A50U C79U A83C C85G G110A A111C	-7.36

Variant	polymerase ribozyme fitness (log ratio)
C12G C62G C72G U87A G113U U125G	-5.49
C12G U96C	0.043
C12U A16G C28U A46C G120C	-1.6
C12G G48C A91C	-2.22
C12G G71U G77A	-0.248
C12G U55A C56G G63A U81C	-2.01
C12G U78G C102U	-1.99
C12G G42A G57C C72U U125C	-4.98
C12G G39U C53G	-0.932
C12G C62G C115U	-3.7
C12G C70A A75U U112A G113U G120C U133G	-2.57
C12U A26U U32G A46C G48U A50G A74U C94G C114G	-7.12
C12G G135U	-0.927
C12G C56G	-1.05
C12G C123A U126C	0.201
C12G C62U C89A C94U	-2
C12G U30G C72G C101A U106A A119U C123U	-5.26
C12G C102U A119G C124U U125A	-0.278
C12G G61A	0.388
C12G G61U	0.811
C12G U130C	0.663
C12G G44U G47C G58C U116A	-5.59
C12G C98U	-0.616
